Laboratory results: patent US20240216513A1, “FATTY ACID-BIFUNCTIONAL DEGRADER CONJUGATES AND THEIR METHODS OF USE” (Novartis AG, priority 2021, published 2024)
Marks after values point to notes of the source that are not given here.

What was measured:
[1] = BTK FAC plasma stability assay, PBS buffer arm; assay type: physicochemical; conditions: for Plasma stability (h) PBS: incubation to 24 h
Method in brief: (§1)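 Compound from a 500 µM acetonitrile:water working solution was spiked into K3-EDTA plasma or Dulbecco's PBS and incubated with shaking at 38 °C. Samples taken at 0, 2, 6 and 24 h were precipitated with cold acetonitrile containing glyburide internal standard. Semi-quantitative LC-MS/MS used analyte:internal standard peak area ratios.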

[2] = BTK FAC plasma stability assay, rat plasma; assay type: in vitro ADME; conditions: for Plasma stability (h) rat: incubation to 24 h
Method in brief: as §1

[3] = BTK FAC plasma stability assay, cyno plasma; assay type: in vitro ADME, cynomolgus monkey
[4] = target: T1, BTK C481S (Homo sapiens, UniProt Q06187, C481S); assay: PD screen in TMD8 BTK C481S mutant tumor-bearing mice, BTK levels and compound concentrations in blood and tumor; assay type: in vivo, mouse; conditions: for Duration of BTK degradation in mouse ≥90% (days): 50 umol/kg; for Duration of BTK degradation in mouse ≥90%: 25 umol/kg
T1 construct: endogenous in cells; host or cells: TMD8 BTK C481S mutant tumour xenografts in mice
T1 sequence (Q06187 whole entry C481S): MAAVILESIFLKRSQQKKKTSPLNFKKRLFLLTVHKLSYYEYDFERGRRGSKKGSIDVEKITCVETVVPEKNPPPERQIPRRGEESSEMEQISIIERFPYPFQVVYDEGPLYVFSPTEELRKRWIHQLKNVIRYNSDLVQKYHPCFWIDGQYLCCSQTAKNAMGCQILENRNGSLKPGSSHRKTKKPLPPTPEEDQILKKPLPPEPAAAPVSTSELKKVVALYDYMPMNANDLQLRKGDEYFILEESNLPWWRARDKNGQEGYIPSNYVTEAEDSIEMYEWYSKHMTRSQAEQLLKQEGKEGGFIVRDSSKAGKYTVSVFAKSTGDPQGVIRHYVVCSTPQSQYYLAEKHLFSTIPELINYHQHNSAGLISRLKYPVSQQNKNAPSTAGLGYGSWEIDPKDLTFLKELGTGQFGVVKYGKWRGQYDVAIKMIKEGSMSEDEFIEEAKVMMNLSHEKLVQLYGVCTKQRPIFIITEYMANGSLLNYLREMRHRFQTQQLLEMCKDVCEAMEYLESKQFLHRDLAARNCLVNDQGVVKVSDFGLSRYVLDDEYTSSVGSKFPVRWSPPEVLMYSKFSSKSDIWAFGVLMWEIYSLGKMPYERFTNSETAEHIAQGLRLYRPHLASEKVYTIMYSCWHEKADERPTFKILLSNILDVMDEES
Experimental: All animal studies were conducted in accordance with ethics and procedures covered by permit nos. BS-1975 issued by the Kantonales Veterinäramt Basel-Stadt and in strict adherence to guidelines of the Eidgenössisches Tierschutzgesetz and the Eidgenössische Tierschutzverordnung, Switzerland. All animals had access to food and water ad libitum and were identified with transponders. They were housed in a specific pathogen-free facility with a 12-h light/12-h dark cycle. For PD screen experiments in TMD8 BTK C481S mutant tumor-bearing mice, FAC was injected once. Animals were randomized into groups of 2 and tissue samples collected at day 0, 4, 7 and in some studies day 10 as well. Blood samples were collected and tumors were excised, weighed, frozen in liquid nitrogen and cryogenic dry pulverized with the CryoPrep™ system (model CP-02, Covaris). Concentrations of compounds in blood and tumors were determined by UPLC/MS-MS and BTK levels were analyzed by Meso Scale Discovery.

[5] = BTK FAC plasma stability assay, dog plasma; assay type: in vitro ADME
[6] = BTK FAC plasma stability assay, mouse plasma; assay type: in vitro ADME; conditions: for Plasma stability (h) mouse: incubation to 24 h
Method in brief: as §1

| Compound | % Release of degrader after 24 h PBS [1] [%] | Plasma stability (h) PBS [1] [h] | % Release of degrader after 24 h rat [2] [%] | Plasma stability (h) rat [2] [h] | Plasma stability (h) cyno [3] [h] | % Release of degrader after 24 h cyno [3] [%] | Duration of BTK degradation in mouse ≥90% (days) ([4]; i.v.) | Plasma stability (h) dog [5] [h] | % Release of degrader after 24 h dog [5] [%] | % Release of degrader after 24 h mouse [6] [%] | Plasma stability (h) mouse [6] [h] | Duration of BTK degradation in mouse ≥90% ([4]; i.v.) [days] | Duration of BTK degradation in mouse ≥90% ([4]; s.c.) [days] |
| --- | --- | --- | --- | --- | --- | --- | --- | --- | --- | --- | --- | --- | --- |
| CCCCCCCCCCCN(C(=O)CCCCCCCCCC(=O)O)C(CCC(=O)NCCOCCOCCOCCOCCOCCOCCOCCOCCOCCOCCOCCOCCC(=O)N1CCC[C@H]1CC(=O)OC(C)(C)c1ccc(C(=O)Nc2cc(F)cc(-c3ncnc4[nH]c(-c5ccc(CCN6CCC7(CC6)CCN(C(=O)c6ccc(OC)c(N8CCC(=O)NC8=O)c6)CC7)cc5)cc34)c2C)c(F)c1)C(=O)O (stereo partly drawn) [Example A19, 44-Carboxy-1-((S)-2-(2-((2-(4-((3-(6-(4-(2-(9-(3-(2,4-dioxotetrahydropyrimidin-1(2H)-yl)-4-methoxybenzoyl)-3,9-diazaspiro[5.5]undecan-3-yl)ethyl)phenyl)-7H-pyrrolo[2,3-d]pyrimidin-4-yl)-5-fluoro-2-methylphenyl)carbamoyl)-3-fluorophenyl)propan-2-yl)oxy)-2-oxoethyl)pyrrolidin-1-yl)-1,41,46-trioxo-45-undecyl-4,7,10,13,16,19,22,25,28,31,34,37-dodecaoxa-40,45-diazahexapentacontan-56-oic acid] | 0.3 | >48 | 0.5 | >48 | >48 | 0.2 | 7* days | >48 | 0.3 | 0.5 | >48 |  |  |
| CCCCCCCCCCCN(C(=O)CCCCCCCCCC(=O)O)[C@@H](CCC(=O)NCCOCCOCCOCCOCCOCCOCCOCCOCCOCCOCCOCCOCCC(=O)N(CCC(=O)OC(C)(C)c1ccc(C(=O)Nc2cc(F)cc(-c3ncnc4[nH]c(-c5ccc(CCN6CCC7(CC6)CCN(C(=O)c6ccc(OC)c(N8CCC(=O)NC8=O)c6)CC7)cc5)cc34)c2C)c(F)c1)CC(=O)O)C(=O)O [Example A24, (S)-2-(3-((2-(4-((3-(6-(4-(2-(9-(3-(2,4-Dioxotetrahydropyrimidin-1(2H)-yl)-4-methoxybenzoyl)-3,9-diazaspiro[5.5]undecan-3-yl)ethyl)phenyl)-7H-pyrrolo[2,3-d]pyrimidin-4-yl)-5-fluoro-2-methylphenyl)carbamoyl)-3-fluorophenyl)propan-2-yl)oxy)-3-oxopropyl)-3,43,48-trioxo-47-undecyl-6,9,12,15,18,21,24,27,30,33,36,39-dodecaoxa-2,42,47-triazaheptapentacontane-1,46,57-tricarboxylic acid] | 2.8 | >48 | 7.2 | >48 |  |  |  | >48 | 5.9 | 7.4 | >48 | 10 | 10 |
| CCCCCCCCCCCN(C(=O)CCCCCCCCCC(=O)O)C(CCC(=O)NCCOCCOCCOCCOCCOCCOCCOCCOCCOCCOCCOCCOCCC(=O)N[C@@H](C)CC(=O)OC(C)(C)c1ccc(C(=O)Nc2cc(F)cc(-c3ncnc4[nH]c(-c5ccc(CCN6CCC7(CC6)CCN(C(=O)c6ccc(OC)c(N8CCC(=O)NC8=O)c6)CC7)cc5)cc34)c2C)c(F)c1)C(=O)O (stereo partly drawn) [Example A20, (6S)-51-Carboxy-2-(4-((3-(6-(4-(2-(9-(3-(2,4-dioxotetrahydropyrimidin-1(2H)-yl)-4-methoxybenzoyl)-3,9-diazaspiro[5.5]undecan-3-yl)ethyl)phenyl)-7H-pyrrolo[2,3-d]pyrimidin-4-yl)-5-fluoro-2-methylphenyl)carbamoyl)-3-fluorophenyl)-2,6-dimethyl-4,8,48,53-tetraoxo-52-undecyl-3,11,14,17,20,23,26,29,32,35,38,41,44-tridecaoxa-7,47,52-triazatrihexacontan-63-oic acid] | 0.2 | >48 | 0.3 | >48 | >48 | 0.2 | 7* days | >48 | 0.4 | 0.5 | >48 |  |  |
